According to article PMC3706463, “The Asymmetric Binding of PGC-1α to the ERRα and ERRγ Nuclear Receptor Homodimers Involves a Similar Recognition Mechanism” (PLoS ONE, 2013):
Where “and” joins values, the source holds several entries; their conditions need not be identical. Equal entries are not always repeated. Blank lines part the entries; values can stand above or below the molecule they belong to.

B1: ERRα LBD (ERRα-189-423) homodimer (domain or fragment, UniProt P11474 189-423, looked up)
chain: KTAAPVNALVSHLLVVEPEKLYAMPDPAGPDGHLPAVATLCDLFDREIVVTISWAKSIPGFSSLSLSDQMSVLQSVWMEVLVLGVAQRSLPLQDELAFAEDLVLDEEGARAAGLGELGAALLQLVRRLQALRLEREEYVLLKALALANSDSVHIEDAEAVEQLREALHEALLEYEAGRAGPGGGAERRRAGRLLLTLPLLRQTAGKVLAHFYGVKLEGKVPMHKLFLEMLEAMMD
notes: also called ERR LBD; source: cloned in pET24b
B2: ERRα LBD (189-423) homodimer with uncleaved His6 tag (domain or fragment, UniProt P11474 189-423, looked up)
chain: KTAAPVNALVSHLLVVEPEKLYAMPDPAGPDGHLPAVATLCDLFDREIVVTISWAKSIPGFSSLSLSDQMSVLQSVWMEVLVLGVAQRSLPLQDELAFAEDLVLDEEGARAAGLGELGAALLQLVRRLQALRLEREEYVLLKALALANSDSVHIEDAEAVEQLREALHEALLEYEAGRAGPGGGAERRRAGRLLLTLPLLRQTAGKVLAHFYGVKLEGKVPMHKLFLEMLEAMMD
notes: source: cloned in pET24b
B6: ERRγ LBD (ERRγ 229–458) homodimer (domain or fragment, UniProt P62508 229-458, looked up)
chain: PAKKPYNKIVSHLLVAEPEKIYAMPDPTVPDSDIKALTTLCDLADRELVVIIGWAKHIPGFSTLSLADQMSLLQSAWMEILILGVVYRSLSFEDELVYADDYIMDEDQSKLAGLLDLNNAILQLVKKYKSMKLEKEEFVTLKAIALANSDSMHIEDVEAVQKLQDVLHEALQDYEAGQHMEDPRRAGKMLMTLPLLRQTSTKAVQHFYNIKLEGKVPMHKLFLEMLEAKV
notes: also called ERR LBD; source: cloned in pET15b

Experiments:
[1] = biological target: ERRα LBD (ERRα-189-423) homodimer (UniProt P11474); test: ITC; PGC-1α RID wild type or LxxLL mutant (340-580 µM) injected into 40-70 µM ERR in the cell; 20°C; 20 mM Hepes pH 7.5, 120 mM NaCl, 0.2 % glycerol; one set of sites model
[2] = biological target: ERRγ LBD (ERRγ 229-458) homodimer (UniProt P62508); test: as above
[3] = biological target: the molecule itself; test: SAXS; synchrotron solution scattering (X33 DESY, SWING SOLEIL), direct injection or SEC-coupled; free proteins and complexes
[4] = biological target: the molecule itself; test: native MS; ESI-TOF under non-denaturing conditions, 200 mM ammonium acetate, pH 7.4
[5] = biological target: B6; test: as above; details: both partners purified
[6] = biological target: B2; test: as above; details: both partners purified
[7] = biological target: B1; test: ITC; MicroCal iTC200, 20°C, pH 7.5, one set of sites model; apparent; details: both partners purified
[8] = biological target: B6; test: as above; details: both partners purified
[9] = biological target: T1, ERRα LBD (ERRα-189-423) homodimer (UniProt P11474 189-423); test: ITC; PGC-1α RID wild type or LxxLL mutant (340-580 µM) injected into 40-70 µM ERR in the cell; 20°C; 20 mM Hepes pH 7.5, 120 mM NaCl, 0.2 % glycerol; one set of sites model; details: both partners purified
T1 construct: The His6-tag of ERR was cleaved with thrombin for SAXS and left on ERRα for ESI-MS; nothing is said for ITC and native PAGE; also called ERR LBD; source: E. coli BL21 (DE3), purified (HisTrap, SEC)
T1 sequence (looked up): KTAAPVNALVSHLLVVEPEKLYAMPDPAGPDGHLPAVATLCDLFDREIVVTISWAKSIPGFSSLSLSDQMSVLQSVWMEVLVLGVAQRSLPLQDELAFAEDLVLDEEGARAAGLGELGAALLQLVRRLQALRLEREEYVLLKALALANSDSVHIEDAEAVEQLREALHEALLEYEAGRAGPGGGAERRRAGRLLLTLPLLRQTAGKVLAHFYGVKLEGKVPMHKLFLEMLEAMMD

[10] = biological target: T2, ERRγ LBD (ERRγ 229-458) homodimer (UniProt P62508 229-458); test: as above; details: both partners purified
T2 construct: Cloned in pET15b; The His6-tag of ERR was cleaved with thrombin for SAXS; nothing is said for ITC and native PAGE; also called ERR LBD; source: E. coli BL21 (DE3), purified (HisTrap, SEC)
T2 sequence (looked up): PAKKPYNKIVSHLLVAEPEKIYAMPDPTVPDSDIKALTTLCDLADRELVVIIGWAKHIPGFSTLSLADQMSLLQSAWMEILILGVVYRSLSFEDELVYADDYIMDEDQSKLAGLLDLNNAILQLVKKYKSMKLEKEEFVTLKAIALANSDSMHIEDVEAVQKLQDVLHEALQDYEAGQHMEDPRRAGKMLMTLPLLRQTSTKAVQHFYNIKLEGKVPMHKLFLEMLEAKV

PGC-1α NTD (1–285) = biological target: T3, PGC-1α NTD (1–285) (human, UniProt Q9UBK2 1-285); test: SAXS; synchrotron solution scattering (X33 DESY, SWING SOLEIL), direct injection or SEC-coupled; free proteins and complexes; details: both partners purified
T3 construct: PGC-1α, human, residues 1-285, holds motifs L2 and L3; source: cloned in pET24b
T3 sequence (looked up): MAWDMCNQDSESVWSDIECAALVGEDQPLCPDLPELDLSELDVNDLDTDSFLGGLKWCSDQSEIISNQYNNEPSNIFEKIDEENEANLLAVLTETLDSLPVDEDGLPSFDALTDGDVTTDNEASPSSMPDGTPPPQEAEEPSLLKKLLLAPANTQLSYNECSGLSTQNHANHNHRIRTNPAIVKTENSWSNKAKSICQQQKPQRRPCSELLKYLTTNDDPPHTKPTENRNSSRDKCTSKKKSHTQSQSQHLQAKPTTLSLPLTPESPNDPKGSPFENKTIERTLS

[11] = biological target: B1; test: not stated; binding of short PGC-1α peptides to ERR LBDs; told only in the discussion; details: both partners purified
[12] = biological target: B6; test: as above; details: both partners purified

stoichiometry N [5]: 1 PGC-1α RID2 molecule per ERR homodimer
stoichiometry N [6]: 1 PGC-1α RID2 molecule per ERR homodimer
B3: PGC-1α RID2 (122–285) (domain or fragment, human, UniProt Q9UBK2 122-285, looked up)
chain: EASPSSMPDGTPPPQEAEEPSLLKKLLLAPANTQLSYNECSGLSTQNHANHNHRIRTNPAIVKTENSWSNKAKSICQQQKPQRRPCSELLKYLTTNDDPPHTKPTENRNSSRDKCTSKKKSHTQSQSQHLQAKPTTLSLPLTPESPNDPKGSPFENKTIERTLS
modifications: 15N-labelled in the NMR experiments
notes: PGC-1α, human, residues 122-285, holds motifs L2 and L3; also called His6-tagged PGC-1α RID2; source: cloned in pET24b; not shown: His6, N-terminal, kept

Kd [11]: 6100 nM
Kd [12]: 1200 nM
B7: short peptide encompassing motif L2 of PGC-1α (peptide)
chain: EAEEPSLLKKLLLAPANTQ
modifications: Peptide limits are not printed in the supplied text; 137-155 is the commonly used PGC-1α L2 peptide around motif 144-148. Termini unknown.

Kd [11]: 4100 nM
Kd [12]: 1300 nM
B8: short peptide encompassing motif L3 of PGC-1α (peptide)
chain: QQQKPQRRPCSELLKYLTTNDD
modifications: Peptide limits are not printed in the supplied text; taken from the PGC-1α L3 peptide crystallised with ERRα (PDB 3D24, cited in the supplement). Termini unknown.

Further lines, the molecule ahead of its results:

Molecule: PGC-1α RID1 L2m (LKKLL to LKKAA) (from UniProt Q9UBK2 122-235) (domain or fragment)
stoichiometry N [1]: 0.846
stoichiometry N [2]: 0.605

Molecule: PGC-1α RID1 L3m (LLKYL to AAKYL) (from UniProt Q9UBK2 122-235) (domain or fragment)
stoichiometry N [1]: 0.483
stoichiometry N [2]: 0.793

Molecule: B1
stoichiometry N [3]: 2 and 6

Molecule: B2
stoichiometry N [4]: 2

B4: PGC-1α RID1 (122–235), wild type (domain or fragment, human, UniProt Q9UBK2 122-235, looked up)
chain: EASPSSMPDGTPPPQEAEEPSLLKKLLLAPANTQLSYNECSGLSTQNHANHNHRIRTNPAIVKTENSWSNKAKSICQQQKPQRRPCSELLKYLTTNDDPPHTKPTENRNSSRDK
modifications: 15N-labelled in the NMR experiments
notes: His6 is named only for RID2; source: cloned in pET24b
Kd [7]: 71 ± 6 nM
Kd [8]: 53 ± 3 nM

B5: PGC-1α RID1 (122-235), wild type (domain or fragment, human, UniProt Q9UBK2 122-235, looked up)
chain: EASPSSMPDGTPPPQEAEEPSLLKKLLLAPANTQLSYNECSGLSTQNHANHNHRIRTNPAIVKTENSWSNKAKSICQQQKPQRRPCSELLKYLTTNDDPPHTKPTENRNSSRDK
notes: for ITC, native PAGE and SEC-MALS no cleavage of the PGC-1α tag is told; 15N-labelled for NMR; source: E. coli BL21 (DE3), purified (HisTrap, SEC); not shown: His6, N-terminal, kept
stoichiometry N [9]: 0.94 ± 0.001
stoichiometry N [10]: 0.932 ± 0.001

Molecule: B6
stoichiometry N [4]: 2
binding result (PGC-1α NTD (1–285)): binds
